The values that follow come from article PMC6372160, “Biophysical and structural characterization of a zinc-responsive repressor of the MarR superfamily” (PLoS ONE, 2019).

A word on the stoichiometry N: it is the number of molecules, sites or subunits per partner or assembly.

Data set [1] concerns the molecule itself. Nature of the data set: SEC-MALS; 50 ul of fully purified protein at approximately 1-4 mg/ml on a KW-803 column (Shodex), 0.5 ml/min, supplemented with 1 uM ZnSO4 (untreated protein).
Data set [2] deals with the molecule itself. Nature of the data set: SEC; gel filtration at the end of purification, 20 mM Tris-HCl (pH 7.0), 200 mM NaCl, 100 uM ZnSO4; data not shown. For orientation: Size exclusion chromatography separates by hydrodynamic size, large species first.

B1: ZitR protein of Lactococcus lactis subspecies cremoris strain MG1363, untagged recombinant (S2A, A4R, D8E) form (natural protein, UniProt A2RNS2 1-145, looked up)
chain: MALRNQIEQFLGAIMQFAENKHEILLGECESNVKLTSTQEHILMILAAEVSTNARIAEQLKISPAAVTKALKKLQEQELIKSSRATNDERVVLWSLTEKAIPVAKEHAAHHEKTLSTYQELGDKFTDEEQKVISQFLSVLTEEFR
notes: A minor tetrameric form was also seen at the end of the purification; also called ZitRMG; holo-ZitRMG
Regarding B1, the “stoichiometry N” value in data set [1] is 2; in data set [2], 4.
